Results from article PMC6763497, “Argonaute bypasses cellular obstacles without hindrance during target search”.
Where a chain is given by its changes, count along the chain named.

Assays:
CbAgo [1] = biological target: T1, CbAgo (Clostridium butyricum, UniProt P0DYD1 1-748); assay: smFRET; shuttling time 0.4459 s at 200 mM NaCl; 50 mM Tris-HCl pH 8.0, 100 mM NaCl (10-200 mM in salt series); temperature not given; TIRF smFRET, 100 ms; conditions: protein: recombinant, tags: His6-MBP removed by TEV, label: Cy3 guide, Cy5 target, 3' biotin, two sites
CbAgo [2] = biological target: T1, CbAgo; assay: smFRET; shuttling time 2.11 s (2.03-2.19); 50 mM Tris-HCl pH 8.0, 100 mM NaCl (10-200 mM in salt series); temperature not given; TIRF smFRET, 100 ms; conditions: protein: recombinant, tags: His6-MBP removed by TEV, label: Cy3 guide, Cy5 target, 3' biotin dT, two sites
CbAgo [3] = biological target: T1, CbAgo; assay: smFRET; Lin28b bound between targets; shuttling; 50 mM Tris-HCl pH 8.0, 100 mM NaCl (10-200 mM in salt series); temperature not given; TIRF smFRET, 100 ms; conditions: protein: recombinant; tags: His6-MBP removed by TEV; label: Cy3 guide; Cy5 target; hairpin between two ss target sites
CbAgo [4] = biological target: T1, CbAgo; assay: smFRET; shuttling time 0.5124 s at 200 mM NaCl; 50 mM Tris-HCl pH 8.0, 100 mM NaCl (10-200 mM in salt series); temperature not given; TIRF smFRET, 100 ms; conditions: protein: recombinant, tags: His6-MBP removed by TEV, label: Cy3 guide, Cy5 target, 3' biotin dT, two sites
CbAgo [5] = biological target: T1, CbAgo; assay: smFRET; 17 bp blockade, shuttling; 50 mM Tris-HCl pH 8.0, 100 mM NaCl (10-200 mM in salt series); temperature not given; TIRF smFRET, 100 ms; conditions: protein: recombinant; tags: His6-MBP removed by TEV; label: Cy3 guide; 3' biotin dT target; strands 2:3 pair over 17 bp, ss flanks
CbAgo [6] = biological target: T1, CbAgo; assay: smFRET; 21 bp blockade; 50 mM Tris-HCl pH 8.0, 100 mM NaCl (10-200 mM in salt series); temperature not given; TIRF smFRET, 100 ms; conditions: protein: recombinant; tags: His6-MBP removed by TEV; label: Cy3 guide; 3' biotin dT target; strands 2:3 pair over 21 bp, ss flanks
CbAgo [7] = biological target: T1, CbAgo; assay: smFRET; 25 bp blockade; 50 mM Tris-HCl pH 8.0, 100 mM NaCl (10-200 mM in salt series); temperature not given; TIRF smFRET, 100 ms; conditions: protein: recombinant; tags: His6-MBP removed by TEV; label: Cy3 guide; 3' biotin dT target; strands 2:3 pair over 25 bp, ss flanks
CbAgo [8] = biological target: T1, CbAgo; assay: smFRET; 100 mM NaCl; mean dwell 37 s, koff 2.7e-2 s-1; 50 mM Tris-HCl pH 8.0, 100 mM NaCl (10-200 mM in salt series); temperature not given; TIRF smFRET, 100 ms; conditions: protein: recombinant, tags: His6-MBP removed by TEV, label: Cy3 guide, Cy5 target, 3' biotin target, 3 nt match (guide nt 2-4)
CbAgo [9] = biological target: T1, CbAgo; assay: smFRET; stable beyond photobleaching time; 50 mM Tris-HCl pH 8.0, 100 mM NaCl (10-200 mM in salt series); temperature not given; TIRF smFRET, 100 ms; conditions: protein: recombinant, tags: His6-MBP removed by TEV, label: Cy3 guide, Cy5 target, 3' biotin target
CbAgo [10] = biological target: T1, CbAgo; assay: smFRET; 100 mM NaCl; 87.8% shuttling, 13.5 events per binding; 50 mM Tris-HCl pH 8.0, 100 mM NaCl (10-200 mM in salt series); temperature not given; TIRF smFRET, 100 ms; conditions: protein: recombinant, tags: His6-MBP removed by TEV, label: Cy3 guide, Cy5 target, 3' biotin, two sites
CbAgo [11] = biological target: T1, CbAgo; assay: smFRET; 15.1% shuttling; strongly bound; 50 mM Tris-HCl pH 8.0, 100 mM NaCl (10-200 mM in salt series); temperature not given; TIRF smFRET, 100 ms; conditions: protein: recombinant, tags: His6-MBP removed by TEV, label: Cy3 guide, Cy5 target, 3' biotin, two sites, 6 nt match
CbAgo [12] = biological target: T1, CbAgo; assay: smFRET; three-state shuttling; 50 mM Tris-HCl pH 8.0, 100 mM NaCl (10-200 mM in salt series); temperature not given; TIRF smFRET, 100 ms; conditions: protein: recombinant, tags: His6-MBP removed by TEV, label: Cy3 guide, Cy5 target, 3' biotin, three sites 11 nt apart
CbAgo [13] = biological target: T1, CbAgo; assay: smFRET; shuttling rate 0.3188 s-1; 50 mM Tris-HCl pH 8.0, 100 mM NaCl (10-200 mM in salt series); temperature not given; TIRF smFRET, 100 ms; conditions: protein: recombinant, tags: His6-MBP removed by TEV, label: Cy3 guide, Cy5 target, 3' biotin dT, two sites
CbAgo [14] = biological target: T1, CbAgo; assay: smFRET; shuttling time as tandem 11 nt; 50 mM Tris-HCl pH 8.0, 100 mM NaCl (10-200 mM in salt series); temperature not given; TIRF smFRET, 100 ms; conditions: protein: recombinant; tags: His6-MBP removed by TEV; label: Cy3 guide; Cy5 target; 5' biotin strand; fork 2:3, 17 bp stem

B1: Guide 3nt / tandem 15 nt (ssDNA)
DNA 1: CGAGTATTTTTTTTTTTTTTTT
DNA 2: TTTTTTTTTTTTTACTACCTCTTTTTTTACTACCTCTTTTTTTTTTTTTTTTTTTTTTTTTTTTTT
modifications: guide 5' phosphate; amino-C6-dT
CbAgo [1]
  binding result: binds

B2: Guide 3nt / tandem 120 nt (ssDNA)
DNA 1: CGAGTATTTTTTTTTTTTTTTT
DNA 2: TTTTTTTTTTTTTTACTACCTCTTTTTTTTTTTTTTTTTTTTTTTTTTTTTTTTTTTTTTTTTTTTTTTTTTTTTTTTTTTTTTTTTTTTTTTTTTTTTTTTTTTTTTTTTTTTTTTTTTTTTTTTTTTTTTTTACTACCTCTTTTTTTTTTTTTTTTTTTTTTTTTTTTTTT
modifications: guide 5' phosphate; amino-C6-dT; target 3' phosphate
CbAgo [2]
  binding result: binds

B3: Guide 3nt / Lin28 double target (mixed)
DNA 1: CGAGTATTTTTTTTTTTTTTTT
DNA 2: TTTTTTTTTTTTTTTTTTTACTACCTCTTTTTTTTTTTTTTTTTTTTGCGCTATGCGGTTGTATAGTTTTAGGGTCACACCCACCACTGGGAGATAACTATACAATCGCATAGCGCTTTTTTTTTTTTTTTTTTTTTTTTTTTTTTTTTACTACCTCTTTTTTTTTTTTTTTTT
modifications: guide 5' phosphate; amino-C6-dT
CbAgo [3]
  binding result: binds

B4: Guide 3nt / tandem 64 nt (ssDNA)
DNA 1: CGAGTATTTTTTTTTTTTTTTT
DNA 2: TTTTTTTTTTTTTTACTACCTCTTTTTTTTTTTTTTTTTTTTTTTTTTTTTTTTTTTTTTTTTTTTTTTTTTTTTTTTACTACCTCTTTTTTTTTTTTTTTTTTTTTTTTTTTTTTTT
modifications: guide 5' phosphate; amino-C6-dT; target 3' phosphate
CbAgo [4]
  binding result: binds

B5: Guide 3nt / 36 nt target with 17 nt block (mixed)
DNA 1: CGAGTATTTTTTTTTTTTTTTT
DNA 2: TTTTTTTTTTTTTTACTACCTCTCGGACCAACAGCGGGTACGGCTGTGCTACTACCTCTTTTTTTTTTTTTTTTTTTTTTTTTTTTTTTT
DNA 3: ACAGCCGTACCCGCTGT
modifications: guide 5' phosphate; labelled T in block
CbAgo [5]
  binding result: binds

B6: Guide 3nt / 36 nt target with 21 nt block (mixed)
DNA 1: CGAGTATTTTTTTTTTTTTTTT
DNA 2: B5 DNA 2
DNA 3: GCACAGCCGTACCCGCTGTTG
modifications: guide 5' phosphate; labelled T in block
CbAgo [6]
  binding result: binds

B7: Guide 3nt / 36 nt target with 25 nt block (mixed)
DNA 1: CGAGTATTTTTTTTTTTTTTTT
DNA 2: B5 DNA 2
DNA 3: TAGCACAGCCGTACCCGCTGTTGGT
modifications: guide 5' phosphate; labelled T in block
CbAgo [7]
  binding result: binds

B8: Guide 3nt (2-4) / single target (ssDNA)
DNA 1: CGAGTATTTTTTTTTTTTTTTT
DNA 2: TTTTTTTTTTTTTTTTTTTTTTTTTTTTTTTTTTTACTACCTCTTTTTTTTTTTTTTTTTTTTTTTTTTTTTT
modifications: guide 5' phosphate; amino-C6-dT at guide nt 9 and target nt 28
CbAgo [8]
  binding result: binds

B9: Guide 8nt (2-9) / single target (ssDNA)
DNA 1: CGAGGTAGTTTTTTTTTTTTTT
DNA 2: B8 DNA 2
modifications: guide 5' phosphate; amino-C6-dT
CbAgo [9]; named 8 nt match (nt 2-9)
  binding result: binds

B10: Guide 7nt (2-8) / single target (ssDNA)
DNA 1: CGAGGTAGATTTTTTTTTTTTT
DNA 2: B8 DNA 2
modifications: guide 5' phosphate; amino-C6-dT
CbAgo [9]; named 7 nt match (nt 2-8)
  binding result: binds

B11: Guide 3nt / tandem 22 nt (ssDNA)
DNA 1: CGAGTATTTTTTTTTTTTTTTT
DNA 2: B8 DNA 2 with T14A, T15C, T17A, T18C, T19C, T21C
modifications: guide 5' phosphate; amino-C6-dT
CbAgo [10]
  binding result: binds

B12: Guide 6nt / tandem 22 nt (ssDNA)
DNA 1: CGAGGTATTTTTTTTTTTTTTT
DNA 2: B8 DNA 2 with T14A, T15C, T17A, T18C, T19C, T21C
modifications: guide 5' phosphate; amino-C6-dT
CbAgo [11]
  binding result: binds

B13: Guide 3nt / triple target (ssDNA)
DNA 1: CGAGTATTTTTTTTTTTTTTTT
DNA 2: TTTTTTTTTTTTACCTCTTTTTTACCTCTTTTTTACCTCTTTTTTTTTTTTTTTTTTTTTTTTTTTTTT
modifications: guide 5' phosphate; amino-C6-dT
CbAgo [12]
  binding result: binds

B14: Guide 3nt / tandem 92 nt (ssDNA)
DNA 1: CGAGTATTTTTTTTTTTTTTTT
DNA 2: TTTTTTTTTTTTTTACTACCTCTTTTTTTTTTTTTTTTTTTTTTTTTTTTTTTTTTTTTTTTTTTTTTTTTTTTTTTTTTTTTTTTTTTTTTTTTTTTTTTTTTTTACTACCTCTTTTTTTTTTTTTTTTTTTTTTTTTTTTTTT
modifications: guide 5' phosphate; amino-C6-dT; target 3' phosphate
CbAgo [13]
  binding result: binds

B15: Guide 3nt / 11 nt Y-fork (mixed)
DNA 1: CGAGTATTTTTTTTTTTTTTTT
DNA 2: TTTTTTTTTTTTTTTTTTTTTTTTCTCTTTGGCGACGGCAGCGAGGC
DNA 3: GCCTCGCTGCCGTCGCCATTTTTTCTCTTTTTTTTT
modifications: guide 5' phosphate; dye-labelled T in target
CbAgo [14]
  binding result: binds
